Laboratory results reported in patent US7888089B2, “eNOS mutations useful for gene therapy and therapeutic screening” (Yale University, priority 1999, dated 2011).

Molecular target: T1, Akt (Homo sapiens, UniProt P31749)
T1 construct: host or cells: baculovirus-infected SF9 cells (Akt); peptides synthesized at the W. M. Keck Biotechnology Resource Center
Test: In vitro phosphorylation of eNOS peptides (1174-1194) by recombinant Akt
Assay type: biochemical
Conditions: n=5
Experimental: In studies identifying the labeled eNOS peptide, immunoprecipitated Akt was incubated with recombinant eNOS as above. The sample was run on SDS-PAGE, and the eNOS band digested in gel, and the resultant tryptic fragments purified by RP-HPLC. Peptide mass and ^32P incorporation were monitored and the prominent labeled peak further analyzed by mass spectrometry. In other experiments, peptides corresponding to the potential Akt phosphorylation site were synthesized, purified by HPLC and verified by mass spectrometry (W. M. Keck Biotechnology Resource Center, Yale University School of Medicine). The wild-type peptide was 1174[…]1194 (SEQ ID NO:2) and the mutant peptide was identical except S1179 was changed to an alanine. In vitro kinase reactions were essentially as described above incubating peptides (25 mg) with recombinant Akt (1 mg). Reactions were then spotted onto phosphocellulose filters and the amount of phosphate incorporated measured by Cerenkov counting.

T1 sequence (P31749 whole entry): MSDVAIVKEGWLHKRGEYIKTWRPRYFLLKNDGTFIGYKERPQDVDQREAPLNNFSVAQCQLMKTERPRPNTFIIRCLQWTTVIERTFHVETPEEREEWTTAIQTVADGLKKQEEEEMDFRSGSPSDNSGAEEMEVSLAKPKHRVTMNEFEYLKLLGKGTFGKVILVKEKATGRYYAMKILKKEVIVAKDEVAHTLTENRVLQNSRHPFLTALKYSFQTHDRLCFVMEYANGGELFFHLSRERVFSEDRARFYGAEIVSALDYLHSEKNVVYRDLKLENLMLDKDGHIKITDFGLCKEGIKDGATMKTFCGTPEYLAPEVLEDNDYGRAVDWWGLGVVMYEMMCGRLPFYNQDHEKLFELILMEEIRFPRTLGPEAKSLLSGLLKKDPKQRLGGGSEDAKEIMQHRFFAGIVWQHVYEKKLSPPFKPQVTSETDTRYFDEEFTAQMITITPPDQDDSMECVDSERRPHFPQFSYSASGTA

phosphate incorporated into peptide: 24.6±3.7 nmol phosphate/mg
Substance: 1174RIRTQSFSLQERHLRGAVPWA1194 (listed as Bos sp.) [wild-type peptide]
